Measured values as given in article PMC9967848.

What was measured:
Conditions in all cases: none (in vitro transcript); 20 mM Tris-HCl pH 8, 50 mM NaCl, 1 mM MgCl2; 5 nM tRNA, 30 min incubation; temperature not stated
[1] = system: EPRS linker (whole linker) (human); assay: fluorescence quenching
EPRS linker R2R3 (human) = assay: fluorescence anisotropy
[2] = system: EPRS linker R1R2R3 (human); assay: fluorescence anisotropy
EPRS linker R1R2 (human) = assay: fluorescence anisotropy

## bovine tRNATrp
[1]
  Kd: 511 nM

## human tRNAGlu
[1]
  Kd: 886 nM

## human tRNALys3
[1]
  Kd: 589 nM
EPRS linker R2R3 (human)
  Kd: > 10000 nM
[2]
  Kd: 43 nM
EPRS linker R1R2 (human)
  Kd: 209 nM

## human tRNAPro
[1]
  Kd: 449 nM
